Data on six sequences can be found in the DeepSol protein solubility set.

The nature of this series: soluble on expression in E. coli; label from the status in PepcDB or PDB records.
With “MSTFGEHRPYVFLPPADLDRIAAQWSKDSARPDAQGRGIAIFSAITGSYDSINHHEHLIPGADYLLFSDAPKPRYVYQPRQAPWFDCDTVRAARFIKTHPHMLLGGYRIAVWIDGNILIRGDLLPLVQRFEESGLAFGAVPHPLRQSVYAEAVECMKRGKDDEATIRRQMQRYRREEFDCEDLIESNLLMFRLGHPSLAPLLDTWWAQIESGSRRDQLSLNYALHKTGVEWLALTQRPHSVRDHPALALMHHRSQFNPLEHHHHHH”, the “soluble on expression in E. coli” value is on record as “soluble”.

In the case of “MVIMSSTFMGYERENGRIGTRNHVLIIPVDDLSNTVAAAVENNIFGTRAILHPYGRLQFGADLDLTFRTLAGYGRNPNVASAIVVGIEDNWTNRIADQISQTGKHVETVSIEGSGDLKAIEKASRLAKEMAQESSTKTRKEFDVSNLIVSTKCGESDTTSGLASNPTVGVVFDRLVDEGATVIFGETSELTGAEKYIAEKMANNELKDKFMKIFNDYQDVIKSQGVDLLGSQPTEGNIKGGLSTIEEKALGNIQKAGTKKITGVLDYAEEPKSKGLNFMNTSSAAAEAVTLFAAAGAVVHLFTTGQGNIVGNHILPVIKTTANPKTAKNMAEHIDLDLSGLLKFEYTLKDAGDKLYNLLLETASGKLTSNEVLKHYEFALTKLYISA”, the “soluble on expression in E. coli” value is listed as “not soluble”.

In the case of “MNVLVIGRGGREHALAWKFAQSEKVEKVYVAPGNEGMRDVATPIDIDENDFDALVLFAKENHVELTFVGPEIPLMNGIVDRFKEEGLRVFGPNKAAAVIEGSKAFTKELMKKYNIPTAAYETFTDYEEAVQYIEKVGAPIVIKADGLAAGKGVTVAMTLEEALQAAKEMLQDVKFGEASKKVVIEEFLDGQEFSLMAFVNGTTVHPMVIAQDHKRAFDGDKGPNTGGMGAYSPVPQISESAVQEAIETVLYPTAKAMIQENRSFTGILYAGLILTNDGPKVIEFNARFGDPETEVVLPRLENDLVDVCNAVLDESELTLQWSDEAVIGVVLAAKGYPEAYKKGDIIKGLDALQDVIVFHAGTAMKRGDFVTNGGRVLFVACKANSLQEAKDKVYKEIGKIESDVLFYRSDIGYRAIGHEMTRS”, the “soluble on expression in E. coli” value is given as “not soluble”.

As to “GMKDNYDAPESMLTGRVMYNGEALQLRGNEAVQLQLYQHGYAKHDPINVYVNQDGMYSANLFDGEYQMITKSGNGPWTSEGRDTINVTVAGNTVQDVEVTPYYLVRDAQMTLEGNKVNASFKVEKVAGGGIDRVFFMLSTTQFVNDAEHNVDRYDETDNLDAYDETGKLYTFATRDYTDNSMFQTALKRGTLFGRICIWPKGSDQGIYSKVIRLK”, the “soluble on expression in E. coli” value is given as “soluble”.

As to “MSLVLPSGAFTLKNVTVPAAIFGQRGDLISTDIGIVDGQISAPGGKVIEMAEAMVLPAFVDCHTHLDKGHILPRAQNPDGTFVGALTSVREDHLNWTSKDVRTRADFSIRCAYAHGTRAIRTHVDSMNGQYKRSWPVFAGLREKWANKVELQMTSLITCESYGMPEYAEIAATVAHFDGVLGMVSFPMPDLKKVLLSHFETAGNLGLALDFHTDETMDPSSETLRVIAECVMETGFCGRVLVGHCCSLSQQEENLAMDTLDLVAKAKIDVVSLPMCNLYLQDRHAGRTPRGRGVTLVHEMKARGINVSFASDNTRDPFYAYGDMDMLEVMRMATRIAHLDHSDFDWVKSFSQTPAEVCDFPDLSLAHGTTADLVIFNARNWNELYSRPQSDRIVLRNGIAIDRKLPSYSELDALLEAYKEGHHHHHH”, the “soluble on expression in E. coli” value is listed as “soluble”.

In the case of “MGSDKIHHHHHHMRFMFLHPRLSLEGDPLGLMQLSASLKQRGHIVGLTLLTEDYIEAIRSFQPDMLGVSLMSSDAVMMHQVLNKVRMVFPDLFIIVGGPHPTFDPSCLMVLPVNAICVGEGDEALVEALEQYGREGHVEGIRNVGTVTTPVTLRPLVSDLDDLPFIDRDIVYAKNHIVRDFPLKTFAASRGCHFKCTYCFNHAYNAMYAGLGHVVRRRSVDHLIAEMRDVIARYPTSYIKISDDSFTYRVDSWLEEFAEKYPRLIGLPFYCLLRADVVTRDMVRLLREAGCRSVCMSIEAGAETVRRDVLNRRVSNEKIIESFDLFNEAGIAIYTNSMLAMPRATLADDIATLDLNIRCRPTLGHFTIMAPFPGTRIHDMCEKDGILPERCGGDGDIPTSTGELSKLTTYTDEEKNIQKNIVLLGPLVIRFPVLRGVFLRCLAKLPSNNILFKCIYTVTKNLLFKRIVPVRMSPLLMLRIAIAQVKAARTQVG”, the “soluble on expression in E. coli” value is “not soluble”.
